Assay results as given in PMC7181697 (2020).

Tests used:
Test in all cases: ITC
[1] = target: REV7^W171A (human, UniProt Q9UI95 1-211, W171A)
[2] = target: REV7^Y63A (human, UniProt Q9UI95 1-211, Y63A)
[3] = target: REV7^K129A (human, UniProt Q9UI95 1-211, K129A)
[4] = target: REV7^WT-REV3(1871–2021) (human, UniProt Q9UI95 1-211; O60673 1871-2021)
Sequence of REV7^WT-REV3(1871–2021) (Q9UI95 whole entry, chain 1 of 2): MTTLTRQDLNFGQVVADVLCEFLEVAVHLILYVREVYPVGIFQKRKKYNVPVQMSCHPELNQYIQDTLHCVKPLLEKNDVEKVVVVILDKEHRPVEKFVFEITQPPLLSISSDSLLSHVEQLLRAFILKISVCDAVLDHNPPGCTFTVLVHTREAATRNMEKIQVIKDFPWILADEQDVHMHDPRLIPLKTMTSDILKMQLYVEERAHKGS
Sequence of REV7^WT-REV3(1871–2021) (O60673 1871-2021, chain 2 of 2): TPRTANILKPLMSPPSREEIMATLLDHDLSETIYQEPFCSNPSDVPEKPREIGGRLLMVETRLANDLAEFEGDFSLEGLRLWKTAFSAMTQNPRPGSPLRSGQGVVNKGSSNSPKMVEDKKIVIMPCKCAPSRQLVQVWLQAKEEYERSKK

Sequence of REV7^K129A (Q9UI95 whole entry K129A): as the sequence (Q9UI95 whole entry, chain 1 of 2) above, with K129A counted along it
Sequence of REV7^Y63A (Q9UI95 whole entry Y63A): as the sequence (Q9UI95 whole entry, chain 1 of 2) above, with Y63A counted along it
Sequence of REV7^W171A (Q9UI95 whole entry W171A): as the sequence (Q9UI95 whole entry, chain 1 of 2) above, with W171A counted along it

B1: SHLD3(1–82) with C-terminal His6-tag (domain or fragment)
chain: MTTEVILHYRPCESDPTQLPKIAEKAIQDFPTRPLSRFIPWFPYDGSKLPLRPKRSPPVISEEAAEDVKQYLTISEHDAKSH
- Kd [1]: 170 nM
- Kd [2]: 160 nM
- Kd [3]: 4.8 nM

B2: REV3(1847-1906) (domain or fragment)
chain: MLTPTPDSSPRSTSSPSQSKNGSFTPRTANILKPLMSPPSREEIMATLLDHDLSETIYQE
- Kd [3]: 7.3 nM

B3: cREV1 CTD (chimeric REV1 CTD: POL κ RIR fused to the N-terminus of REV1 CTD) (other)
chain: SHKKSFFDKKRSERKWGLSSLQSDPAGCVRPPAPNLAGAVEFNDVKTLLREWITTISDPMEEDILQVVKYCTDLIEEKDLEKLDLVIKYMKRLMQQSVESVWNMAFDFILDNVQVVLQQTYGSTLKVT
- Kd [4]: 1600 nM
